Results as given in patent US20230295324A1.

Assays:
[1] = target: human OX40 on cells (CHO-K1/hu OX40) (human) (UniProt P43489); assay: cell-based or functional assay
[2] = target: human OX40 on cells (CHO-K1/hu OX40) (human) (UniProt P43489); assay: FACS, CHO-K1/hu OX40 cells

Chain of human OX40 on cells (CHO-K1/hu OX40) (human) (P43489 29-277): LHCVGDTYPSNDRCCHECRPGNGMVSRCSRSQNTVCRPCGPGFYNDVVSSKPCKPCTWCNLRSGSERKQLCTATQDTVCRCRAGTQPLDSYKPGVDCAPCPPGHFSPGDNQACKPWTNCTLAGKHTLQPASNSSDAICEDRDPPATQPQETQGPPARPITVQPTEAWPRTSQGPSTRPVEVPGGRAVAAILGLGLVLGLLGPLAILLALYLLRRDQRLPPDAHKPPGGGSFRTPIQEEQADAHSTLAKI

Substance: hIgG1 (antibody)
- Maximum fluorescence signal value, HEK293/OX40/NF-kb luciferase reporter [1]: 2530 luminescence
- EC50 [2]: 71 nM
- Maximum MFI [2]: 6900 MFI
